{"source": "patent US20240254250A1", "about": "(HARPOON THERAPEUTICS, published 2024)", "binders": {"B1": {"name": "human BCMA protein (receptor)", "chain": "MLQMAGQCSQNEYFDSLLHACIPCQLRCSSNTPPLTCQRYCNASVTNSVKGTNA"}}, "target": "253BH10 trispecific protein", "sequence (chain, as listed by the source limits assumed, form in doubt)": "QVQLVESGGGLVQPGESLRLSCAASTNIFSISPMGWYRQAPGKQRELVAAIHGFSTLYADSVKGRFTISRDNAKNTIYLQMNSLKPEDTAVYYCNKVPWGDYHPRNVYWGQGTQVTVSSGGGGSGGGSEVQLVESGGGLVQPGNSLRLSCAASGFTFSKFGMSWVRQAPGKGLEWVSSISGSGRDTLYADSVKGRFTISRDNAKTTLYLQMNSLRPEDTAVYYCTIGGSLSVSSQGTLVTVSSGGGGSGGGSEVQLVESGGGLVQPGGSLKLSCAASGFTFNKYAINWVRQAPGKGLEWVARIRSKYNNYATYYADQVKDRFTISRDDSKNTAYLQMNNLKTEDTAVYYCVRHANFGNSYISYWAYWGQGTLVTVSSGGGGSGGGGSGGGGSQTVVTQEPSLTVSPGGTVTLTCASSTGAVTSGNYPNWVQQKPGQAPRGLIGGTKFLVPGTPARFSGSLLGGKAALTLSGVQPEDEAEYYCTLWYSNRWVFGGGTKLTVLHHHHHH", "assay": "affinity measurement, method not stated", "data": [{"binder": "B1", "values": [{"measurement": "Kd", "result": 0.0277, "unit": "µM"}]}]}
